Interaction score data for 5 molecules are collected here from PMC10397247.

The target in one assay is T1, 4H2915-bH.
T1 chain: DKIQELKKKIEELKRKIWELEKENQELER
Description: two-hybrid library CCNG1.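 Also: natural log of median RNA to DNA barcode read ratio; higher means stronger binding.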

A further assay addresses T2, 4H2438-bH.
T2 chain: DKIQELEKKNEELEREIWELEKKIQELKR
Description: two-hybrid library CCNG1.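 Also: natural log of median RNA to DNA barcode read ratio; higher means stronger binding.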

A further assay deals with T3, 4H2717-bH.
T3 chain: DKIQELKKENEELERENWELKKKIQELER
Description: two-hybrid library CCNG1.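 Also: natural log of median RNA to DNA barcode read ratio; higher means stronger binding.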

In another assay the target is T4, 4H319-bH.
T4 chain: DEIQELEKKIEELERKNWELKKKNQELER
In words: two-hybrid library CCNG1.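 Also: natural log of median RNA to DNA barcode read ratio; higher means stronger binding.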

For the next assay, the target named is T5, 4H2839-bH.
T5 chain: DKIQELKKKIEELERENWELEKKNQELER
In words: two-hybrid library CCNG1.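 Also: natural log of median RNA to DNA barcode read ratio; higher means stronger binding.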

The next assay addresses T6, 4H477-bH.
T6 chain: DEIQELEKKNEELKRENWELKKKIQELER
In words: two-hybrid library CCNG1.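 Also: natural log of median RNA to DNA barcode read ratio; higher means stronger binding.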

A further assay concerns the target T7, 4H40-bH.
T7 chain: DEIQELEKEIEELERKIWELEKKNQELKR
In words: two-hybrid library CCNG1.

The target in another assay is T8, 4H492-bH.
T8 chain: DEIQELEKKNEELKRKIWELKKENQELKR
Description: two-hybrid library CCNG1.

In the next assay the target is T9, 4H2143-bH.
T9 chain: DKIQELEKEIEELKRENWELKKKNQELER
Description: two-hybrid library CCNG1.

A further assay deals with T10, 4H2692-bH.
T10 chain: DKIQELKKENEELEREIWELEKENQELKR
Description: two-hybrid library CCNG1.

The target in the next assay is T11, 4H121-bH.
T11 chain: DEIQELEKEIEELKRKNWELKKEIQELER
In words: two-hybrid library CCNG1.

Another assay deals with T12, 4H2134-bH.
T12 chain: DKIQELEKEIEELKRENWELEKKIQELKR
Description: two-hybrid library CCNG1.

The next assay concerns the target T13, 4H2223-bH.
T13 chain: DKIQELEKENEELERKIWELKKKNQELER
Description: two-hybrid library CCNG1.

The target in another assay is T14, 4H2588-bH.
T14 chain: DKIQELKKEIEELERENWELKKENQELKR
In words: two-hybrid library CCNG1.

The target of the next assay is T15, 4H2473-bH.
T15 chain: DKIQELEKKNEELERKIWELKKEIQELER
Description: two-hybrid library CCNG1.

The next assay has as its target T16, 4H182-bH.
T16 chain: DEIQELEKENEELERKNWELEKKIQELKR
In words: two-hybrid library CCNG1.

Another assay deals with T17, 4H348-bH.
T17 chain: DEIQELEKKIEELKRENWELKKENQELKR
In words: two-hybrid library CCNG1.

The target in the next assay is T18, 4H2503-bH.
T18 chain: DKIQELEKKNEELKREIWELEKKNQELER
In words: two-hybrid library CCNG1.

Another assay deals with T19, 4H3277-bH.
T19 chain: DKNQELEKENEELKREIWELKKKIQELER
Description: two-hybrid library CCNG1.

The target in another assay is T20, 4H3057-bH.
T20 chain: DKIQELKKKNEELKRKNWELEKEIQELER
In words: two-hybrid library CCNG1.

A further assay deals with T21, 4H741-bH.
T21 chain: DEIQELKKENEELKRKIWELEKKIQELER
Description: two-hybrid library CCNG1.

The target in another assay is T22, 4H570-bN.
T22 chain: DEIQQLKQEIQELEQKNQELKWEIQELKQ
Description: two-hybrid library CCNG1.

A further assay deals with T23, 4H1338-bN.
T23 chain: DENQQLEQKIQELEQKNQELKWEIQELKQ
In words: two-hybrid library CCNG1.

The target in the next assay is T24, 4H3974-bN.
T24 chain: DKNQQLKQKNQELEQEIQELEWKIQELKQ
In words: two-hybrid library CCNG1.

The next assay has as its target T25, 4H1544-bN.
T25 chain: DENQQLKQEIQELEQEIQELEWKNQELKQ
In words: two-hybrid library CCNG1.

Another assay deals with T26, 4H3129-bN.
T26 chain: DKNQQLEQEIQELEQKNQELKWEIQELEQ
Description: two-hybrid library CCNG1.

For the next assay, the target named is T27, 4H3613-bN.
T27 chain: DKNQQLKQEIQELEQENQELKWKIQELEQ
Description: two-hybrid library CCNG1.

Another assay addresses T28, 4H584-bN.
T28 chain: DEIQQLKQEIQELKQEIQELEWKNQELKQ
Description: two-hybrid library CCNG1.

The target of the next assay is T29, 4H3926-bN.
T29 chain: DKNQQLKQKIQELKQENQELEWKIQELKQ
In words: two-hybrid library CCNG1.

The target in a further assay is T30, 4H1393-bN.
T30 chain: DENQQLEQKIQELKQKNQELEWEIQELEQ
In words: two-hybrid library CCNG1.

Another assay has as its target T31, 4H1985-bN.
T31 chain: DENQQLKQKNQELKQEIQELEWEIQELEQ
In words: two-hybrid library CCNG1.

The target of another assay is T32, 4H1348-bN.
T32 chain: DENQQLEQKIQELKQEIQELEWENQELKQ
In words: two-hybrid library CCNG1.

The next assay addresses T33, 4H1373-bN.
T33 chain: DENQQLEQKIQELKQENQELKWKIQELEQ
In words: two-hybrid library CCNG1.

In a further assay the target is T34, 4H3638-bN.
T34 chain: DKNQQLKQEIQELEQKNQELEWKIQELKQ
Description: two-hybrid library CCNG1.

The target of the next assay is T35, 4H3172-bN.
T35 chain: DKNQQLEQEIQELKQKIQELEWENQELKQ
In words: two-hybrid library CCNG1.

The next assay addresses T36, 4H1222-bN.
T36 chain: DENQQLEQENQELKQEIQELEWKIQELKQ
In words: two-hybrid library CCNG1.

For a further assay, the target named is T37, 4H1629-bN.
T37 chain: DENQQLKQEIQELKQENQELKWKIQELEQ
In words: two-hybrid library CCNG1.

The next assay concerns the target T38, 4H1710-bN.
T38 chain: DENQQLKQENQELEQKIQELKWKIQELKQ
Description: two-hybrid library CCNG1.

The next assay concerns the target T39, 4H1899-bN.
T39 chain: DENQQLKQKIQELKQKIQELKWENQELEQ
In words: two-hybrid library CCNG1.

Another assay concerns the target T40, 4H363-bN.
T40 chain: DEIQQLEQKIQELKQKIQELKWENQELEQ
Description: two-hybrid library CCNG1.

The target in another assay is T41, 4H3628-bN.
T41 chain: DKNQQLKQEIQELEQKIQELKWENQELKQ
In words: two-hybrid library CCNG1.

The next assay concerns the target T42, 4H1359-bN.
T42 chain: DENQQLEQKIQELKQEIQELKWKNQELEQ
Description: two-hybrid library CCNG1.

The target of a further assay is T43, 4H3817-bA.
T43 chain: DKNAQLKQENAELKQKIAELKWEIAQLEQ
In words: two-hybrid library CCNG1.

Another assay deals with T44, 4H619-bN.
T44 chain: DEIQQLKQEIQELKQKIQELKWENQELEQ
In words: two-hybrid library CCNG1.

Another assay deals with T45, 4H1804-bN.
T45 chain: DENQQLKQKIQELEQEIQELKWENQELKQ
Description: two-hybrid library CCNG1.

The target of a further assay is T46, 4H3414-bN.
T46 chain: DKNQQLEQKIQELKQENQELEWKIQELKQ
In words: two-hybrid library CCNG1.

The next assay concerns the target T47, 4H850-bN.
T47 chain: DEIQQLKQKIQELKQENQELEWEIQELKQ
Description: two-hybrid library CCNG1.

The next assay deals with T48, O9-bH.
T48 chain: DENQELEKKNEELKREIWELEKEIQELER
Description: two-hybrid library CCNG1.

The target of a further assay is T49, 4H906-bN.
T49 chain: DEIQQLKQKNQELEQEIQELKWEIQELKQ
Description: two-hybrid library CCNG1.

In a further assay the target is T50, 4H3858-bN.
T50 chain: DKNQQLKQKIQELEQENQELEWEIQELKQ
In words: two-hybrid library CCNG1.

In another assay the target is T51, 4H3817-bN.
T51 chain: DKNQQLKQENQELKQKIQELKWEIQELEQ
In words: two-hybrid library CCNG1.

The target in a further assay is T52, 4H3631-bN.
T52 chain: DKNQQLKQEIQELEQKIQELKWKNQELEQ
Description: two-hybrid library CCNG1.

A further assay concerns the target T53, 4H1449-bN.
T53 chain: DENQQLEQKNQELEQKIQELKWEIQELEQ
In words: two-hybrid library CCNG1.

The target in another assay is T54, 4H491-bH.
T54 chain: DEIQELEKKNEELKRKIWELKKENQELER
In words: two-hybrid library CCNG1.

The next assay addresses T55, 4H2883-bH.
T55 chain: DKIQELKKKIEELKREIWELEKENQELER
Description: two-hybrid library CCNG1.

A further assay concerns the target T56, 4H2944-bH.
T56 chain: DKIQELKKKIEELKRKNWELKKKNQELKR
In words: two-hybrid library CCNG1.

In another assay the target is T57, 4H19-bH.
T57 chain: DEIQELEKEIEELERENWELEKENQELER
In words: two-hybrid library CCNG1.

The target of the next assay is T58, 4H2937-bH.
T58 chain: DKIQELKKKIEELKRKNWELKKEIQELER
Description: two-hybrid library CCNG1.

A further assay addresses T59, 4H2696-bH.
T59 chain: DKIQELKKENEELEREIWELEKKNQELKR
In words: two-hybrid library CCNG1.

The target of another assay is T60, 4H342-bH.
T60 chain: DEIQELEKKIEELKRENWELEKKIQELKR
In words: two-hybrid library CCNG1.

For the next assay, the target named is T61, 4H48-bH.
T61 chain: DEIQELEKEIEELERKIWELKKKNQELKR
Description: two-hybrid library CCNG1.

In a further assay the target is T62, Core_INNN-es_KEEE.
T62 chain: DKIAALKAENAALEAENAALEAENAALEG
Description: two-hybrid library CCmax. The settings on record: mean of both orientations.

In another assay the target is T63, Core_NINN-es_KEEE.
T63 chain: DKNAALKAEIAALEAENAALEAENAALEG
Description: two-hybrid library CCmax. The settings on record: mean of both orientations.

With DEIQELEKEIEELKRKNWELKKEIQELER [4H121-bH], the interaction score in the assay with 4H2915-bH was 0.235; with 4H2438-bH, 1.45; in the assay with 4H2717-bH, 0.068; with 4H319-bH, -1.11; in the assay with 4H2839-bH, 1.02; with 4H477-bH, -1.3. The interaction score is -1.44 in the assay with 4H40-bH; -0.574 with 4H492-bH; 0.472 with 4H2143-bH; 0.482 with 4H2692-bH; -0.364 with 4H121-bH; 1.11 with 4H2134-bH. Also, the interaction score is 1.48 with 4H2223-bH; -1.11 with 4H2588-bH; -0.404 with 4H2473-bH; 0.0625 with 4H182-bH; -0.636 with 4H348-bH; -0.913 with 4H2503-bH. For the same molecule, the interaction score is -0.678 with 4H3277-bH, 0.547 with 4H3057-bH and -0.43 with 4H741-bH.

With DENQQLEQENQELKQEIQELEWKIQELKQ [4H1222-bN], the interaction score was -0.0662 with 4H570-bN; 0.344 with 4H1338-bN; -0.957 in the assay with 4H3974-bN; -1.38 with 4H1544-bN; -0.201 in the assay with 4H3129-bN; 0.482 with 4H3613-bN. Moreover, the interaction score with 4H584-bN was -0.959; with 4H3926-bN, 0.755; with 4H1393-bN, -0.718; in the assay with 4H1985-bN it was -2.04; in the assay with 4H1348-bN, -2.2; in the assay with 4H1373-bN it was -0.0597. In addition, the interaction score with 4H3638-bN was 0.921; in the assay with 4H3172-bN, -0.0903; in the assay with 4H1222-bN it was -1.63; with 4H1629-bN it was 0.612; with 4H1710-bN, 0.715; with 4H1899-bN, -0.657. Also, the interaction score with 4H363-bN is -0.189; with 4H3628-bN, -0.764; in the assay with 4H1359-bN it was 0.554; in the assay with 4H3817-bA, 1.4; with 4H619-bN, -0.785; with 4H1804-bN it was 0.407. Further, the interaction score was 0.105 with 4H3414-bN; 0.741 with 4H850-bN; 1.11 with O9-bH; -1.3 with 4H906-bN; -0.767 in the assay with 4H3858-bN; 2.15 in the assay with 4H3817-bN. The values for the interaction score with 4H3631-bN and in the assay with 4H1449-bN were 0.357 and -0.277, respectively.

For the molecule DEIQELEKEIEELERENWELEKENQELER [4H19-bH], the interaction score with 4H491-bH was 0.299; with 4H2883-bH, 1.05; with 4H2944-bH, 1.17; with 4H19-bH, -0.777; in the assay with 4H2937-bH, 0.634; with 4H2696-bH, 0.41. The interaction score is -0.785 in the assay with 4H342-bH and -1.56 with 4H48-bH.

In the case of DEIAALEAKNAALKAKNAALKAKNAALKG [Core_INNN-es_EKKK], the interaction score with Core_INNN-es_KEEE was 1.79.

In the assay with Core_NINN-es_KEEE, DENAALEAKIAALKAKNAALKAKNAALKG [Core_NINN-es_EKKK] came in with an interaction score of 2.12.
